The values that follow come from patent US5286847A, “Interleukin-1 muteins, their preparation and method of use to inhibit interleukin-1 activity” (New England Medical Center Hospitals, Inc., priority 1992, dated 1994).

For test [1], the target named is T1, cell surface receptor of EL4 6.1 C10 murine thymoma cells (Mus musculus, UniProt P13504).
T1 construct: endogenous in cells; host or cells: EL4 6.1 C10 murine thymoma cells
T1 sequence (P13504 20-576): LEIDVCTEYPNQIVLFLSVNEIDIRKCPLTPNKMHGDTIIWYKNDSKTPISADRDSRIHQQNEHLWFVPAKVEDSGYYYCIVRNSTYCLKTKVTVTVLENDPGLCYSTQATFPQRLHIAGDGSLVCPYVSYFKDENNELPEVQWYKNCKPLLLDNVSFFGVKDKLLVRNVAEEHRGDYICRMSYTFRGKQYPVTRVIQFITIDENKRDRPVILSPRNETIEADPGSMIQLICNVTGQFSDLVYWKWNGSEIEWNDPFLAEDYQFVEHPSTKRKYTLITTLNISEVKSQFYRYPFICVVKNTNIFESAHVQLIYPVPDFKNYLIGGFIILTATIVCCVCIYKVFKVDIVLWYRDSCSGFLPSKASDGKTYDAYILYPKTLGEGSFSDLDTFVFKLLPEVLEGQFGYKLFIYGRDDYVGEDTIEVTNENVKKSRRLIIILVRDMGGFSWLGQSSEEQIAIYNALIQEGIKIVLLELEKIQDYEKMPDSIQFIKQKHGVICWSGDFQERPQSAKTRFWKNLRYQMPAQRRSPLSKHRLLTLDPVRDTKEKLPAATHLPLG
Briefly: SDS polyacrylamide gel analysis of specifically bound [35S]-labeled IL-1β proteins. Type of test: binding. To be noted: FIG. 3. The procedure: FIG. 3. Analysis of receptor binding. [^35 S]-labeled IL-1β proteins were incubated at 4° C. with murine EL.4 cells in the absence (-) or presence (+) or nonradioactive competitor recombinant IL-1β protein. Following incubation, the cells were sedimented through silicone oil as described previously (Jobling et al., 1988). The IL-1β proteins are identified at the top of the figure by numbers corresponding to amino acid positions. IL1(1-269) is proIL-1β, while IL1(117-269) corresponds to the mature IL-1β protein. The "native" and "Gly127 " notations at the bottom of the figure refer to the wild-type mature protein (Arg127) and the Arg127 →Gly127 mutein, respectively.
The receptor binding characteristics of the Arg127 →Gly127mutant protein were determined by Scatchard analysis and by sodium dodecyl sulfate (SDS) polyacrylamide gel analysis of specifically bound proteins (Dower et al., 1986; Jobling et al., 1988; Mosley et al., J. Biol. Chem. 1987). For the polyacrylamide gel analysis, IL-1β proteins were labeled with [^35 S]methionine during in vitro translation before cell surface receptor binding assays using EL4 6.1 C10 murine thymoma cells (Jobling et al., 1988; Mosley et al., Proc. Natl. Acad. Sci. USA, 1987; MacDonald, H. R., R. K. Lees, C. Bron [1985] J. Immunol. 135:3944) (FIG. 3). […]

Test [2] has as its target T2, IL-1 receptor on EL.4 cells (Mus musculus, UniProt P13504).
T2 construct: incubated with EL.4 cells; endogenous in cells; host or cells: EL.4 (murine thymoma)
T2 sequence (P13504 20-576): T1 sequence (P13504 20-576)
Briefly: Equilibrium receptor binding of [35S]-labeled IL-1β peptides to EL.4 cells, Scatchard plot analysis. Details: species or system murine. To be noted: for receptor affinity compared with wild-type IL-1β (in words): equilibrium binding analyses and competitive binding studies. The procedure:
The conversion of IL-1 molecules by mutation of specific residues gives muteins having utility as IL-1 biological activity inhibitors. Specifically disclosed is the preparation and testing of human IL-1β.
The receptor binding characteristics of the Arg127 →Gly127mutant protein were determined by Scatchard analysis and by sodium dodecyl sulfate (SDS) polyacrylamide gel analysis of specifically bound proteins (Dower et al., 1986; Jobling et al., 1988; Mosley et al., J. Biol. Chem. 1987). For the polyacrylamide gel analysis, IL-1β proteins were labeled with [^35 S]methionine during in vitro translation before cell surface receptor binding assays using EL4 6.1 C10 murine thymoma cells (Jobling et al., 1988; Mosley et al., Proc. Natl. Acad. Sci. USA, 1987; MacDonald, H. R., R. K. Lees, C. Bron [1985] J. Immunol. 135:3944) (FIG. 3). […] Equilibrium binding experiments and Scatchard plot data (Table 1) confirmed the equivalence of binding constants.

Test [3] concerns helper T-cells (D10.G4.1). Briefly: Biological activity: [3H]thymidine incorporation by helper T-cells (D10.G4.1) with diluted translation mixtures. The format is cell-based. To be noted: FIG. 2. The procedure: FIG. 2. Biological activities of IL-1β proteins. Reticulocyte translation mixtures were incubated and assayed in the thymocyte co-stimulation assay as described previously (Jobling et al., 1988). The results are presented as [^3 H]thymidine incorporation (counts/minute)at various final dilutions of the translation mixtures.
The IL-1β proteins were synthesized by in vitro translation of SP6 or T7 messenger RNAs. In vitro protein synthesis was performed as described previously (Jobling et al., 1988; Jobling, S. A., and L. Gehrke [1987] Nature 325:622-625). The translational efficiency of all construct mRNAs was increased by replacing the untranslated leader sequence of the IL-1β mRNA with that of alfalfa mosaic virus RNA (Jobling et al., 1988; Jobling et al., 1987). All IL-1β protein translation products contain the amino-terminal methionine residue added during initiation of protein synthesis. The biological activity of the translation products was tested by quantitating [^3 H]thymidine incorporation by helper T-cells (D10.G4.1) (Kaye, Y., S. Porcelli, J. Tite, B. Jones, C. A. Janeway [1983] J. Exp. Med. 158:836-856) incubated in the presence of diluted translation reaction mixtures (FIG. 2).
For orientation: Dividing cells build labelled thymidine or BrdU into new DNA.

For test [4], the target named is T3, EL4 cell receptors (IL-1 receptor) (Mus musculus, UniProt P13504).
T3 construct: incubating EL.4 thymoma cells; endogenous in cells; host or cells: EL.4 thymoma cells
T3 sequence (P13504 20-576): T1 sequence (P13504 20-576)
The test can be described thus: Competitive receptor binding against [35S]-labeled mature IL-1β on EL.4 thymoma cells. Also on record: species or system murine. To be noted: 37° C., concentrations up to a five-fold molar excess, FIG. 4. Here is the method: FIG. 4. Competitive receptor binding. A constant amount of radioactive mature IL-1β protein was added to 1.9×10^7 EL.4 cells in binding medium. The results are presented as a percentage of radioactive IL-1β which bound specifically in the absence of competitor. The 100% value represents approximately 30,000 cpm.
As a further analysis of the receptor binding properties, nonradioactive proteins were used to complete with [^35 S]-labeled wild-type mature IL-1β for binding to EL4 cell receptors (FIG. 4). Competitive receptor binding was performed by incubating EL.4 thymoma cells at 37° C. in the presence of a constant level of [^35 S]-labeled mature IL-1β protein and increasing concentrations of non-radioactiveIL-1β competitor translation products. […] The amount of IL-1β protein synthesized by in vitro translation was determined by specific radioactivity using a radioactive IL-1β protein standard which was quantitated by radioimmune assay. […] The cells were solubilized in lysis buffer (50 mM sodium phosphate, pH 7; 10 mM ethylenediaminetetraacetic acid (EDTA); 0.1% TRITON™ X-100; 0.1% sarkosyl; 10 mM β-mercaptoethanol) before quantitation of bound radioactivity by liquid scintillation counting. […]

For test [5] the following is noted: literature (Huang et al. 1987; Jobling et al. 1988); cited from earlier work.
The target of test [6] is T2, IL-1 receptor on EL.4 cells. As to conditions: Jobling et al., 1988; cited from earlier work.

“Arg127 →Gly127 mutant: human mature IL-1β mutein made by site-directed mutagenesis of the IL-1β cDNA converting Arg127 to Gly127”: the “receptor binding properties by intensity of bound protein bands, compared with native mature IL-1β” value in test [1] is “similar”. In test [2] (EL.4 cells, 4° C.), the “Relative binding (receptor binding affinity in relation to mature wild-type IL-1β = 100%)” value came out at 107%. For the same substance, in test [2] (listed as Arg127 →Gly127 mutant form of IL-1β), the “receptor affinity compared with wild-type IL-1β (in words)” value is “equal affinity”. For the same substance, the “receptor affinity compared with wild-type IL-1β (in words)” value in test [2] (listed as Arg127 →Gly127 mutant protein) is reported as “indistinguishable from that of the wild-type IL-1β protein”. Besides, in test [3], the “biological activity (half maximal), fold less than wild-type mature IL-1β” value is on record as “at least 100 fold”; the “biological activity relative to that induced by mature IL-1β” value came out at 1%; the “half maximal biological activity compared with proIL-1β” value is on record as “greater than that of proIL-1β”. Also, the “competition with [35S]-labeled wild-type mature IL-1β for binding (in words)” value in test [4] was “reproducibly competed more effectively than the wild-type mature IL-1β”.

Consider “proIL-1β: human IL-1β 31,000 dalton precursor protein, 269 amino acids”, for which, in test [5], the “biological activity (in words)” value is reported as “relatively low, but distinct biological activity”. The “affinity for receptor, fold less than that of mature IL-1β” value in test [6] is 30 fold. In addition, the “competition with [35S]-labeled wild-type mature IL-1β for binding (in words)” value in test [4] was “competed minimally”.
